Measured values taken from patent publication US20250339531A1, “DUX4 POLYPEPTIDES AND NUCLEIC ACIDS FOR TREATING INFLAMMATORY AND AUTOIMMUNE CONDITIONS” (Fred Hutchinson Cancer Center, priority 2021, published 2025).

Molecular target: 40S ribosomal protein S14 (Homo sapiens) (UniProt P62263)
Test: anti-FLAG co-IP LC-MS, exp 3, +Dox

i3XFLAG-NLS-CTDaa154-424
PSMs: 2 PSMs
